Tests used:
Settings in all cases: partners not purified
integrin αIIbβ3 [1] = target: T1, integrin αIIbβ3 (human (endogenous in platelets), UniProt P08514-1 32-1039; P05106-1 27-788); assay: flow cytometry on cells; citrated whole blood of healthy controls stimulated with TRAP-6 (20 μM); platelets gated on FSC/SSC and CD42b; bound fibrinogen detected with FITC anti-bFG (clone 9F9); platelet activation index = (MFI test tube - MFI with EDTA 7 mM) / MFI with EDTA
T1 construct: integrin alpha-IIb (αIIb, GPIIb), human; integrin beta-3 (β3, GPIIIa, CD61), human; The platelets of the heterozygous patients carry wild-type and variant integrin together and are not made molecules; also called glycoprotein (GP) IIb/IIIa receptor complex; GPIIb/IIIa; source: endogenous, on platelets in citrated whole blood of healthy blood donors

integrin αIIbβ3 [2] = target: T1, integrin αIIbβ3; assay: flow cytometry on cells; citrated whole blood of healthy controls stimulated with ADP (10 μM); platelets gated on FSC/SSC and CD42b; bound fibrinogen detected with FITC anti-bFG (clone 9F9); platelet activation index = (MFI test tube - MFI with EDTA 7 mM) / MFI with EDTA
integrin αIIbβ3 [3] = target: T1, integrin αIIbβ3; assay: as above; remark: listed apart in the source
integrin αIIbβ3 [4] = target: T1, integrin αIIbβ3; assay: flow cytometry on cells; citrated whole blood of healthy controls stimulated with TRAP-6 (20 μM); platelets gated on FSC/SSC and CD42b; bound fibrinogen detected with FITC anti-bFG (clone 9F9); platelet activation index = (MFI test tube - MFI with EDTA 7 mM) / MFI with EDTA; remark: listed apart in the source

B1: fibrinogen (complex, human (endogenous in whole blood))
chain 1: ADSGEGDFLAEGGGVRGPRVVERHQSACKDSDWPFCSDEDWNYKCPSGCRMKGLIDEVNQDFTNRINKLKNSLFEYQKNNKDSHSLTTNIMEILRGDFSSANNRDNTYNRVSEDLRSRIEVLKRKVIEKVQHIQLLQKNVRAQLVDMKRLEVDIDIKIRSCRGSCSRALAREVDLKDYEDQQKQLEQVIAKDLLPSRDRQHLPLIKMKPVPDLVPGNFKSQLQKVPPEWKALTDMPQMRMELERPGGNEITRGGSTSYGTGSETESPRNPSSAGSWNSGSSGPGSTGNRNPGSSGTGGTATWKPGSSGPGSTGSWNSGSSGTGSTGNQNPGSPRPGSTGTWNPGSSERGSAGHWTSESSVSGSTGQWHSESGSFRPDSPGSGNARPNNPDWGTFEEVSGNVSPGTRREYHTEKLVTSKGDKELRTGKEKVTSGSTTTTRRSCSKTVTKTVIGPDGHKEVTKEVVTSEDGSDCPEAMDLGTLSGIGTLDGFRHRHPDEAAFFDTASTGKTFPGFFSPMLGEFVSETESRGSESGIFTNTKESSSHHPGIAEFPSRGKSSSYSKQFTSSTSYNRGDSTFESKSYKMADEAGSEADHEGTHSTKRGHAKSRPVRGIHTSPLGKPSLSP
chain 2: QGVNDNEEGFFSARGHRPLDKKREEAPSLRPAPPPISGGGYRARPAKAAATQKKVERKAPDAGGCLHADPDLGVLCPTGCQLQEALLQQERPIRNSVDELNNNVEAVSQTSSSSFQYMYLLKDLWQKRQKQVKDNENVVNEYSSELEKHQLYIDETVNSNIPTNLRVLRSILENLRSKIQKLESDVSAQMEYCRTPCTVSCNIPVVSGKECEEIIRKGGETSEMYLIQPDSSVKPYRVYCDMNTENGGWTVIQNRQDGSVDFGRKWDPYKQGFGNVATNTDGKNYCGLPGEYWLGNDKISQLTRMGPTELLIEMEDWKGDKVKAHYGGFTVQNEANKYQISVNKYRGTAGNALMDGASQLMGENRTMTIHNGMFFSTYDRDNDGWLTSDPRKQCSKEDGGGWWYNRCHAANPNGRYYWGGQYTWDMAKHGTDDGVVWMNWKGSWYSMRKMSMKIRPFFPQQ
chain 3: YVATRDNCCILDERFGSYCPTTCGIADFLSTYQTKVDKDLQSLEDILHQVENKTSEVKQLIKAIQLTYNPDESSKPNMIDAATLKSRKMLEEIMKYEASILTHDSSIRYLQEIYNSNNQKIVNLKEKVAQLEAQCQEPCKDTVQIHDITGKDCQDIANKGAKQSGLYFIKPLKANQQFLVYCEIDGSGNGWTVFQKRLDGSVDFKKNWIQYKEGFGHLSPTGTTEFWLGNEKIHLISTQSAIPYALRVELEDWNGRTSTADYAMFKVGPEADKYRLTYAYFAGGDAGDAFDGFDFGDDPSDKFFTSHNGMQFSTWDNDNDKFEGNCAEQDGSGWWMNKCHAGHLNGVYYQGGTYSKASTPNGYDNGIIWATWKTRWYSMKKTTMKIIPFNRLTIGEGQQHHLGGAKQAGDV
notes: fibrinogen alpha chain, human; fibrinogen beta chain, human; fibrinogen gamma chain, human; Plasma fibrinogen of the donor's own blood; no fibrinogen was added; also called FG; soluble FG; source: endogenous, in citrated whole blood of healthy blood donors; copies: + +
- platelet activation index (PAI) by bound fibrinogen, median (integrin αIIbβ3 [1]): 16 fold increase in MFI over EDTA
- platelet activation index (PAI) by bound fibrinogen, mean (integrin αIIbβ3 [2]): 19 fold increase in MFI over EDTA
- platelet activation index (PAI) by bound fibrinogen, median (integrin αIIbβ3 [2]): 17 fold increase in MFI over EDTA
- platelet activation index (PAI) by bound fibrinogen, median (integrin αIIbβ3 [3]): 19 fold increase in MFI over EDTA
- platelet activation index (PAI) by bound fibrinogen, mean (integrin αIIbβ3 [4]): 15 fold increase in MFI over EDTA
- platelet activation index (PAI) by bound fibrinogen, median (integrin αIIbβ3 [4]): 13 fold increase in MFI over EDTA

Source: publication PMC7717987, “αIIbβ3 variants in ten families with autosomal dominant macrothrombocytopenia: Expanding the mutational and clinical spectrum” (PLoS ONE, 2020)
